# Data taken from publication doi:10.1101/798769.
# Target: NANP 5.5-mer peptide, NP(NANP)5 (Plasmodium falciparum)
# Experiment: SPR
substance,measurement,value
"mAb CIS43 (recombinant human IgG1, kappa) (antibody)",fold lower affinity (reference not clear: its own NPDP affinity or mAb 4493),100 fold
